We go through 8 molecules from publication PMC5693750 (Journal of molecular biology, 2017).

The chains are these.
B1: Chp2 (full-length, wild type) (natural protein, S. pombe, UniProt O42934 1-380, looked up)
chain: MVKSADLDLMNSIISESDENFSPPPFTVEEAENSINNKSSTASLESPQNGSWHPSLYGLSVPEKTHIQNSLDLYSHGNSGSQKTHNVSFSCEIRKVKSSKLSPISNMEDSEDKKEEDESSSYKNEFKSSSSASVSSNFEKTSGSDDHNSQSPVPLNEGFEYIASSGSEDKNSDEEFAVEMILDSRMKKDGSGFQYYLKWEGYDDPSDNTWNDEEDCAGCLELIDAYWESRGGKPDLSSLIRLTRSRARSSNEASYVEKDESSNSDDSISYKRRRSRNAANRITDYVDSDLSESSMKEKQSKIEKYMKSDKSSKNFKPPFQKKSWEDLVDCVKTVQQLDNGKLIAKIKWKNGYVSTHDNIIIHQKCPLKIIEYYEAHIKFT
B2: Swi6 (full-length, wild type) (natural protein, S. pombe, UniProt P40381 1-328, looked up)
chain: MKKGGVRSYRRSSTSKRSVIDDDSEPELPSMTKEAIASHKADSGSSDNEVESDHESKSSSKKLKENAKEEEGGEEEEEDEYVVEKVLKHRMARKGGGYEYLLKWEGYDDPSDNTWSSEADCSGCKQLIEAYWNEHGGRPEPSKRKRTARPKKPEAKEPSPKSRKTDEDKHDKDSNEKIEDVNEKTIKFADKSQEEFNENGPPSGQPNGHIESDNESKSPSQKESNESEDIQIAETPSNVTPKKKPSPEVPKLPDNRELTVKQVENYDSWEDLVSSIDTIERKDDGTLEIYLTWKNGAISHHPSTITNKKCPQKMLQFYESHLTFRENE

Data set [1] concerns the target H3Kc9me3 mononucleosome (Xenopus laevis). In words: fluorescence polarisation.
Data set [2] shares this target. In words: AUC.
Data set [3] deals with Unmethylated H3 tail peptide. Nature of the data set: fluorescence polarisation.
The target of data set [4] is H3K9me3 tail peptide. In words: fluorescence polarisation.
Data set [5] concerns the molecule itself. In words: AUC.
Data set [6] deals with the molecule itself. In words: AUC. The source holds these as a separate data set.
The target in data set [7] is B2. Nature of the data set: fluorescence polarisation.
The target in data set [8] is B1. Nature of the data set: fluorescence polarisation. (In general: Fluorescence polarisation rises when a labelled molecule tumbles more slowly, as on binding a larger partner.)
In data set [9] the target is T1, Swi6 chromoshadow domain (CSD) (S. pombe, UniProt P40381 261-328).
T1 sequence: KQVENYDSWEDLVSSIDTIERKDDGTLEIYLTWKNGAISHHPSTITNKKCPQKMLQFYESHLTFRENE
In words: NMR titration.

Where only a bound is given, the exact number is not on record here.

One may read the Kd as a measure of binding affinity in units of concentration. For orientation: stoichiometry N means the number of molecules, sites or subunits per partner or assembly.

The molecule “Swi6 (full-length, wild type) (from UniProt P40381 1-328) (natural protein)” showed a Kd in data set [1] of 130 nM.
As for “Chp2 I370E (from UniProt O42934 1-380) (natural protein)”, the fold weaker Kd than wild-type Chp2 in [1] stood at 3 fold.
The molecule “Swi6 L315D (from UniProt P40381 1-328) (natural protein)” came in with a fold weaker Kd than wild-type Swi6 in data set [1] of 8.5 fold.
In the case of “Chp2 (full-length, wild type) (from UniProt O42934 1-380) (natural protein)”, the stoichiometry N in data set [2] came to 4. In data set [1], the Kd was found to be 430 nM.
Take B1: the fold weaker binding than to the H3K9me3 tail peptide in data set [3] is > 10 fold. For the same molecule, the Kd in data set [4] stood at 1850 nM; in data set [5] it was 183 µM.
As to B2, the fold weaker binding than to the H3K9me3 tail peptide in data set [3] was > 10 fold. Further, in data set [4], the fold weaker binding than Chp2 to the same peptide was 5.5 fold and the fold weaker binding than Swi6 to H3Kc9me3 nucleosomes was 77 fold. The binding result in [6] is listed as “binds”.
On to EKAKTSNVCVCIPCKSAEQ [Sgo1 peptide], for which the Kd in data set [7] was 6.6 ± 2.1 µM; in data set [8], 58.5 µM.
Consider RAVTQYLLHLLQKARPTSQ [Clr3 peptide], for which, in [9], the affinity, expressed as Kd, was 68 ± 15 µM; the “Kd fitted for residue E280” value was 62.5 ± 15.4; the “Kd fitted for residue H321” value was 51.9 ± 7.84.
